Experimental data from the nanobody polyreactivity screen of Harvey et al. (2022).

Test: yeast display, Sf9 membrane polyspecificity reagent, FACS + sequencing; frameworks hold sequencing errors
Method in brief: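 Galactose induction of a Saccharomyces cerevisiae BJ5465 synthetic nanobody display library ran 36–48 hours. The cells were then stained for 1 hour at 4 °C with 10% biotinylated, detergent-solubilized Sf9 membrane reagent, pulled down on streptavidin microbeads and FACS-sorted into low and high (top ~1%) gates on expression and reagent-binding fluorescence. Labels for polyreactivity follow the gate of origin.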

Sequence	polyreactivity (PSR sort gate)
QVQLVESGGGLDQAGSSLSLSCDSSGRIFYGYAMGWYRQEPGKERELVAAISWRGGRTYYADSVKGRFTISRDNAKNTVYLQMNRLIPEDTAVYYCNKDFPPQGKLLNMYYWGQGTQVTLSS	high polyreactivity
QVQLVESGGGLVQAGGSLRLSCAASGSTIKPYTMGWYRPAPGKERELVAAITSGGRTYYADSVKGRFTISRDNAKNTVYLQMNSLKPEDTAVYYCNARRYLWLRRYDYWGQGTQVTVSS	high polyreactivity
QVQLVESGGGLLQAGGSLRLSCAASGRTFYHYTMGWYRQAPGKERELVARITRRVGSTYYADSVKGRFTISRDNAKNIVYLQMNSLKPEDTAVYYCNSKSGVYRYLLDYWGQGTQVTVSS	high polyreactivity
QVQLVESGGGLVQAGGSLRLSCAASGFILDYYAMGWYRQAPGKERELVATITGRGDRTYYADSVKGRFTISRDNAMNTVYLQMNSLKPEDTAVSYCAAGFDGSRHPGFDSWGQGTQVTVSS	low polyreactivity
QVHLVESGGGLVQAGGSLRLICAASGSIYTPNAMGWYRQAPGKETELVAAISSSSDRTYYADSVTGRFTISRDNAKNTFYLQMNSLKPEDTEVYYCNADLRGHGRGTDQYIFDYWGQGTQVTVSS	high polyreactivity
QVQLVESGGGLVQAGGSLRLSCAASGSIFAYAMGWDRQAPGKERELFAAISGGSTYYADSVKGRFTISRDNAKNTVYLQMNSLNPEDTAVYSCAADLDDERYYWGQGTQVTVSS	low polyreactivity
QVQLVESGGGLVQAGGSLRLSCAASGRTIYYYAMGWYRQAPGKERELVAAITSGGSTYYADSVKGRFTISRDNEKNTVYLQMNSLKPEDTAVYYCAARPLEGWHYGSWGQGTQVTVSS	low polyreactivity
QVQLVESGGGLVQAGGSLRLSCAASGRTFYYYAMGWYRQAPGKERELVASISWSGGSTYYADSVKGRFTISRDNAKNTVYLQMNSLKPEDTAVYYCNAQYHTYRWLYAVYLSGDYWGQGTQVTVSS	low polyreactivity
QVQLVESGGRLVQAGGSLRLSCAASGFIFRSYAMGWYRQAPGKERELVAAISSRGGSTSYADSVKGRFTISRDNAKNTVYLQLNSLKPEDTAVYYCNAYQYPGYGNNYWGQGSQVTVSS	high polyreactivity
QVQLVESGGGLVQAGGSLRLSCAASGFTFGPYVKGWYRQAPGKERELVAAISKSGGSTYYADSVKGRFTISRDYAKNTVYLQMNSLKPEDTAVYYCATDYLGGGKRYYYWGQGTQVTVSS	high polyreactivity
QVQLVESGGGLVQAGGSLSLSWAASGSTFETNAMGWYRQAPGKERELVAVITRGGSTYSADSVKGRFTISRDNAKNTVFLQMNRLKPEDTAVYYCNTVKYVPINYIYAMDYWGQGTQVTVSS	low polyreactivity
QVQLVESGGGLVQAGGSLRLSCAASGGIFDFYAMGWYRQAPGKERELVAAITRSGSSTFYADSVKGRFTISRDNAKNTVYLQMNSLKPEDTAVYYCATRPTSDFVKRRVYEWLDYWGQGTQVTVSS	low polyreactivity
QVQLVESGGGLVQAGGSLRLSCAASGSTSGIYAMGWYRQAHGKERELVAAIDTSGGSTYADSVKGRFTISRDNAKNTVYLQMNSLKPEETAVYYCAKPFSSNSWSHGYWGQGTQVTVSS	low polyreactivity
QVQLVESGGGLVQAGGSLRLSCAASGFISSDYAMGWYRQAPGKEREFVAGISRGGGSTYYADSVKGRFTISRDHAKNTVYLQMISLKPEDTAVYYCNARTSLRKYQYYYWGQGTQVTVSS	high polyreactivity
QVQLVESGGGLVQAGGSLRLSCAASGLIFSYYAMGWYRQAPGKERELVAAISRGGSTNYADSVKGRFTISRDNAKNTVNLQMNSLKPEDTAVYYFAAGRFAYHDDYWGQGTQVTVSS	high polyreactivity
QVQLVESGGGLVQAGGSLRISCAASGSTFWYYSMGWYRQAPGKERELVAAITRGGNTNYADSVKGRFTISRDNAKNTVYLQMNSLKPEDTAVYYCNADYKLADYREYNVYSFDYWGQGTQVTVSS	low polyreactivity
QVQLVESGGGLVQAGGSLRLSCAASGSTSTYYAMGWYRQAPGKERELVAAITLGAGRTYADSVKGRFTISRDNAKNTVYLQMNSLKPEDTAVYYCAADSHIDHGKWAYDYWGQGTQVTVSS	low polyreactivity
QVQLVESGGGLVQAGGSLRLRCAASGMGWYRQAPGKEWEKVATITWSDGITYADSVKGRFTISRDNAKNTVYLQMNSLKPEDTAVYYCNADWDQTGTVFYSFGLREMDSWGQCTQVTVSS	low polyreactivity
QVQLVESGGGLVQAGGSLRLSCAASGITFASYAMGWYRQAPGKERELVAAISRTGGSTYYADSVKGRFTISRDNAKNTVYLQMNSLKPEDTAVYYCAARIPYTGYDYWGQGTQVTVSS	high polyreactivity
QVQLVESGGGLDQAGGSLRLSCAASGMTFHPYAMGWYRQAPGKERELVAAISSRGTSTYYADSVKGRFTISRDIAKNTVYLQMNSLKPEDTAVYYCAAEVITIGLYRYGYWGQGTQVTVSS	high polyreactivity
QVQLVESGGGLVQAGGSLRLSCAASGSTFPGYAMGWYRQAPGKERELVASIYTGGSTYYADSVKGRFTISRDNAKKTVYLQMHSLKPEDSAVYYCAADSYNVSSLMYYWGQGTQVTVSS	low polyreactivity
QVQLLESGGGLVQAGGSLRLSCAASGRILRINTMGWYRQAPGKERELVAAISWSGGTTYYADSVKGRFTISRDNAKNTVYLQMNSLKPEDTAVYYCNKAIWYAEYDYWGQGTQVTVSS	low polyreactivity

Sequence	polyreactivity (PSR sort gate)
QVQLVESGGGLVQAGGSLRLSCAASGSTFPGNAMGWYRQAPGKERELVASIRRSGGSTYYADSVKGRFTISRDNAKNTVYLQMNSLKPEDTAVYYCAKRTFLVSGPRSYGWYGVYYWGQGTQVTVSS	high polyreactivity
QVQLVESGGGLVQAGGSLRLSCAASGITFSGNTMGWYRQAPGKERELVAAISSGGSTYYADSVKGRFTISRDNAKNTVYLQMNSLKPEDTAVYYCAVDYFYQDGRGYNEYWGQGTQVTVSS	low polyreactivity
QVQLVESGGGLVQAGGSLRLSCAASGRTFLYNARGWSRQAPGKEMELVAAITKSGGSKYYADSVKGRFTISRDNAKNTVYLQMNSLKPEDTAVYYCAAARRYYTYYREDYYYWGQGTQVTVSS	high polyreactivity
QVQLVESGGGLVQAGGSLRLSCAASGRTFYTNAMGCYRQAPGKERELVARIRRGGTTNYADSVKGRFTISRDNAKNTVYLQMNSLKPEDTAVYYCSYSYGYWGQGTQVTVSS	high polyreactivity
QVQLVESGGGLVQAGGSLRLSCAASGSTVYQYVMGRYRQAPGKVREFVAAITFSGSRTYYADSVKGRFTISRDNAKNTVYLQMNSLKPEDTAVYYCAVHSTSPRGKRYEYWGQGTQVTVSS	high polyreactivity
QVQLVESGGGLVQAGGSLSLSCAASGSTIVVNAMGWYRQAPGKERELVASISWTTCSTYYADSVKGRFTISRDNAKNTVYLQMNSLKPEDTAVYYCAADILPRYSQFDYWGQGTQVTVSS	low polyreactivity
QVQLVESGGGLVQAGGSLRLSCAASGSTFSIYAMGWYRQAPGKEREFVAAISSSSGSTYYADSVKGRFTISRDNAMNTVYLQMNSLKPEDTAVYYCIRRYRRGGVKGVYYWGQGTQVTVSS	high polyreactivity
QVQLQESGGGLVQAGGSLRQSYAASGYIFPSLAMGWYRQAPGKEREFVAAIGRGSTNNYADSVKGRFTISRDNAKKTAYQQMNSLKPEDTAVYYCAAAASPLTRHLYWGQGTQVTVSS	low polyreactivity
QVQLVESGGGLVQAGGSLRLSCAASGSILDYYAMGWYRQAPGKERELVAAIRVNGGSTYYADSVKGRFTISRDNAKNTVYLQMNSLKPEDTAVYFCAARFSRFRRTRSEYDYWGQGTQVTVSS	high polyreactivity
QVQLVESGGGLVQAGGSLRLSCAASGRIFQDYARGWYRQAPGKERELVPSIRWSSTSTYYADSVKGRFTISRDNAKNTVYLQMNSLKPEDTAVYYCNARYPYYTRTRDGRMYYWGQGTQVTVSS	low polyreactivity
QVQLVESGGGLVQAGGSLRLSCAASGSIFLPYAMGWYRQAPGKERELVAAITWGGDSTYADSVKGRFTISRDNAKNTVYLQMNSLKPEDTAVYYCAAGAGFESDYWGQGTQVTVSS	low polyreactivity
QVQLVESGGGLVQAGGSLRLSCAASGITFTDYAMGWYRQAPGKERELVAAISSRGGSTYYADSVQGRFTISRDNAKNTVYVQMNSLKPEDTAVHYCNARFVRRGSGYDYWGQGTQVTVSS	high polyreactivity
QVQLVESGGGLVQAGGSLRLSCAASGLTFSKNARGWYRQSPGKDRELVATISYSSSRTNYADSVKGRFTISRVNAKNPVYLQMNSLKPEDTAVYYCAARVYNGWPTHYDYWGQGTQVTVSS	high polyreactivity
QVQLVESGGGLVQAGGSLRLSCAASGSIFVGNAMGWYRQAPGKERELVAAISSSGGRTFYADSVKGRFTISRDNAKNTVYLQMNSLKPEDTAVYYCAAVYTHWQQRMDYWGQGTQVTVSS	high polyreactivity
QVQLVESGGGLVQAGGSLRLSCAASGRIFPAYAMGWYRQPPGKERELVASIRRGGITYADSVKGRFTISRDNAKNTVYLQMNSLKPEDTAVYYCARPQWRDWYGYWGQGTQVTVSS	low polyreactivity
QVQLVDSGGGLVQAGGSLRLTCAASGIIFYYYAMGWYRQAPGKERELVAAITGTGSRTYYADSVKGRFTISRDNAKNTVYLQMNSLKPEDTAVYYCNARSFATGSKVPARGYWGQGTQVTVSS	high polyreactivity
QVQLEESGGGLVQAGGSLRLSCAASGIIFWWYAMGWYRQAPGKERELVAAISGTGGSTYYADSVKGRFTISRDNAKNTVYLQINRLKPEDTAVYFCAARGKSSSFYDYDYWGQGTQVTVSS	low polyreactivity
QVHLVESGGGLVQAGGSLRLSCAASGFTFNGYAMGWYRQAPGKESEMVAGITRRGGITYYADSVKGRFTISRYNAKNTVYLQMNSLKPEETAVYYCARDYIGHALIHHASLYYYWGQGTQVTVSS	high polyreactivity
QVQLVESGGGLVQAGGSLRLSSAASGRIFNWYTMGWYRQSPGKERELVAAITSGGTTTYYADSVKGRFTISRDNAKNTVYLQMTSLKPEDTAVYYCAARRGGRRGYDYWGQGTQVTVSS	high polyreactivity
QVQLVESGGGLVQAGGSLRLSCAASGNTFGYNAMGWYRQAPGKERELVASITWSGGSTYYADSVKGRFTISRDNAKNTVYLQMNSLKPEDTAVYYCNADVRFDYWGQGTQVTVSS	low polyreactivity
QVQLVESGGCLVQAGGSIRLSCAASGSTFDINAMGWYRQAPGKERELVASITFSGGSTYYADSVKGRFTISRDNAKNTGYLQMNSLKPEDTAVYYCAADSSGEYPGGYWGQGTQVTVSS	low polyreactivity
